Reference: paper PMC8206089, “Split NanoLuc technology allows quantitation of interactions between PII protein and its receptors with unprecedented sensitivity and reveals transient interactions” (Scientific Reports, 2021)
Blank lines part the entries; values can stand above or below the substance they belong to.

Assays:
[1] = biological target: NAGK (Synechococcus elongatus) (UniProt Q6V1L5); test: ultrafiltration; settings: cited from earlier work
[2] = biological target: PII-LgBiT (wild-type PII protein from Synechocystis sp. PCC6803 fused to Large BiT) (Synechocystis sp. PCC6803) (UniProt Q55247); test: split reporter (BiFC, NanoBiT); competition; 10 pM PII-LgBiT trimer with PipX (180, 900, 1800 nM monomer) 15 min at 30 °C, then 180 nM NAGK-SmBiT monomer for 30 min; 2 mM ATP
[3] = biological target: PII-LgBiT (wild-type PII protein from Synechocystis sp. PCC6803 fused to Large BiT) (Synechocystis sp. PCC6803) (UniProt Q55247); test: split reporter (BiFC, NanoBiT); time course; 10 pM PII-LgBiT and 10 nM PipX-SmBiT; ATP/ADP mixtures at a total ADP + ATP concentration of 2 mM
[4] = biological target: PII-LgBiT (wild-type PII protein from Synechocystis sp. PCC6803 fused to Large BiT) (Synechocystis sp. PCC6803) (UniProt Q55247); test: split reporter (BiFC, NanoBiT); in solution; PipX-SmBiT (0-800 nM) titrated to 10 pM PII-LgBiT trimer; 2 mM ATP; 50 mM Tris/HCl pH 7.6, 100 mM KCl, 10% glycerol, 2 mM MgCl2, 0.1% BSA; 15 min at 30 °C; KD from half-maximal luminescence
[5] = biological target: PII-LgBiT (wild-type PII protein from Synechocystis sp. PCC6803 fused to Large BiT) (Synechocystis sp. PCC6803) (UniProt Q55247); test: split reporter (BiFC, NanoBiT); in solution; PipX-SmBiT (0-800 nM) titrated to 10 pM PII-LgBiT trimer; 2 mM ADP; 50 mM Tris/HCl pH 7.6, 100 mM KCl, 10% glycerol, 2 mM MgCl2, 0.1% BSA; 15 min at 30 °C; KD from half-maximal luminescence
[6] = biological target: PII-LgBiT (wild-type PII protein from Synechocystis sp. PCC6803 fused to Large BiT) (Synechocystis sp. PCC6803) (UniProt Q55247); test: split reporter (BiFC, NanoBiT); time course; 10 pM PII-LgBiT and 10 nM PipX-SmBiT; complex formed with 2 mM ATP, then 2 mM 2-OG added
[7] = biological target: PII-LgBiT (wild-type PII protein from Synechocystis sp. PCC6803 fused to Large BiT) (Synechocystis sp. PCC6803) (UniProt Q55247); test: split reporter (BiFC, NanoBiT); time course; 10 pM PII-LgBiT and 10 nM PipX-SmBiT; complex formed with 1 mM ATP + 1 mM ADP, then 2 mM 2-OG added

Chain of PII-LgBiT (wild-type PII protein from Synechocystis sp. PCC6803 fused to Large BiT) (Synechocystis sp. PCC6803) (Q55247 whole entry, the tested form may be a part): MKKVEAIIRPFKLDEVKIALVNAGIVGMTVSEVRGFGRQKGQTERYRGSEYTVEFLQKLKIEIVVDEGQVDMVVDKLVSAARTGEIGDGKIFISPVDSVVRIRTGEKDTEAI
Chain of NAGK (Synechococcus elongatus) (Q6V1L5 whole entry, the tested form may be a part): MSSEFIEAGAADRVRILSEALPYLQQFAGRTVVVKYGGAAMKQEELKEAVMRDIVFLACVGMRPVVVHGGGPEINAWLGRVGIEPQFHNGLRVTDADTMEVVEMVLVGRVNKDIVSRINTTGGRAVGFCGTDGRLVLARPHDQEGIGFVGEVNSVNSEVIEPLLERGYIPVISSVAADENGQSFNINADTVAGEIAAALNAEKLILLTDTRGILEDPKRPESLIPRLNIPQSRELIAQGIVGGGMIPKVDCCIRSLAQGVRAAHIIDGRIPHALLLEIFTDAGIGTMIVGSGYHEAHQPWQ
Chain of PII (P0A3F4 whole entry): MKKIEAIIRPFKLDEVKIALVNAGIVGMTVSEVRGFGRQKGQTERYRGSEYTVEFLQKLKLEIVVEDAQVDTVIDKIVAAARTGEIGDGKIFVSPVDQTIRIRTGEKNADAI

Substance: PII (from UniProt P0A3F4)
- Kd [1]: 73 nM

- luminescence signal of PII-LgBiT with NAGK-SmBiT left at PipX 1:1 to NAGK (2 mM ATP) [2]: 50%
Substance: PipX (without SmBiT, competitor) (natural protein)

- luminescence signal with 0.5 mM ADP + 1.5 mM ATP (percent) [3]: 80%
- Kd [4]: 52 nM
- Kd [5]: 5.7 nM
- time until half of the complex was dissociated after adding 2 mM 2-OG (2 mM ATP) [6]: 45 s
- time until half of the complexes was dissociated after adding 2 mM 2-OG (1 mM ATP + 1 mM ADP) [7]: 340 s
Substance: PipX-SmBiT (PII-interacting protein X fused to Small BiT) (natural protein)
